Target: purified recombinant N-terminal His6 tagged HIV-1 HXBII Vif protein (E. coli)

B1: purified recombinant A3G-His6 (human APOBEC3G with C-terminal Myc-His6 tag, expressed in 293T cells) (protein)
chain: MKPHFRNTVERMYRDTFSYNFYNRPILSRRNTVWLCYEVKTKGPSRPPLDAKIFRGQVYSELKYHPEMRFFHWFSKWRKLHRDQEYEVTWYISWSPCTKCTRDMATFLAEDPKVTLTIFVARLYYFWDPDYQEALRSLCQKRDGPRATMKIMNYDEFQHCWSKFVYSQRELFEPWNNLPKYYILLHIMLGEILRHSMDPPTFTFNFNNEPWVRGRHETYLCYEVERMHNDTWVLLNQRRGFLCNQAPHKHGFLEGRHAELCFLDVIPFWKLDLDQDYRVTCFTSWSPCFSCAQEMAKFISKNKHVSLCIFTARIYDDQGRCQEGLRTLAEAGAKISIMTYSEFKHCWDTFVDHQGCPFQPWDGLDEHSQDLSGRLRAILQNQEN
- A3G-mediated deamination of the ss-deoxyoligonucleotide substrate: Vif inhibits A3G deaminase activity in a dose-dependent manner

Source: US20150111836
